Experimental data taken from patent US20110014656A1 (ZymoGenetics, published 2011).
Numbering of substitutions follows the chain as printed. Each block holds one binder with its values, some of them ahead of it.

Tests used:
[1] = target: T1, human IL-17RC, x1 splice variant, on transfected cells (human, UniProt Q8NAC3 21-791); test: FACS, biotinylated cytokine on transiently transfected 293F cells
T1 construct: Expressed on BHK, 293F or NIH3T3 cells; also called hIL-17RC; hIL-17RC (x1)
T1 sequence: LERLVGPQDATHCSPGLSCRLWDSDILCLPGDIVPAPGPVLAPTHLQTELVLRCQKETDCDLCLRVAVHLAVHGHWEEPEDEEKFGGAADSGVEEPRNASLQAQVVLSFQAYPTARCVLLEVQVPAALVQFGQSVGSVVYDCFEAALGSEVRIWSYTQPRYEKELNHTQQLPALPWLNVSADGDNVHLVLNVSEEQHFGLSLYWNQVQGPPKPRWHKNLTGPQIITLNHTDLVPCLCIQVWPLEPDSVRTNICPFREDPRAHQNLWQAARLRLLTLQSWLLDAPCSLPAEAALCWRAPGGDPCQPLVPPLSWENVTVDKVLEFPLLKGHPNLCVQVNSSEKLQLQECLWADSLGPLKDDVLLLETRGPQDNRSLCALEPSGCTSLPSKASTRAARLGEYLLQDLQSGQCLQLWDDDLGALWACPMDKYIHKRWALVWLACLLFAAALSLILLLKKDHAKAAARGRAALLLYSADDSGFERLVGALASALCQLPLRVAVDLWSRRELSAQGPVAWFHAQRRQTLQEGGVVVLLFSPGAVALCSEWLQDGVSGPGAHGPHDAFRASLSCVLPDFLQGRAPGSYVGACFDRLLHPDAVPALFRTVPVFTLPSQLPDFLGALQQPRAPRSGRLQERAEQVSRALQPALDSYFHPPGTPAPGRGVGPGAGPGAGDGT
From the text: (§1) However, the other splice variants tested either included or excluded hIL-17RC exon 12. These variants were designated hIL-17RCx1 (identical in exon composition to mouse x1 above), hIL-17RCx4 (identical in exon composition to mouse x4 above), hIL-17RCx2, and hIL-17RCx7.

[2] = target: T2, human IL-17RC, x4 splice variant, on transfected cells (human, UniProt Q8NAC3 21-791); test: as above
T2 construct: Expressed on 293F, BHK or NIH3T3 cells; also called hIL-17RCx4; hIL-17RCX4
T2 sequence: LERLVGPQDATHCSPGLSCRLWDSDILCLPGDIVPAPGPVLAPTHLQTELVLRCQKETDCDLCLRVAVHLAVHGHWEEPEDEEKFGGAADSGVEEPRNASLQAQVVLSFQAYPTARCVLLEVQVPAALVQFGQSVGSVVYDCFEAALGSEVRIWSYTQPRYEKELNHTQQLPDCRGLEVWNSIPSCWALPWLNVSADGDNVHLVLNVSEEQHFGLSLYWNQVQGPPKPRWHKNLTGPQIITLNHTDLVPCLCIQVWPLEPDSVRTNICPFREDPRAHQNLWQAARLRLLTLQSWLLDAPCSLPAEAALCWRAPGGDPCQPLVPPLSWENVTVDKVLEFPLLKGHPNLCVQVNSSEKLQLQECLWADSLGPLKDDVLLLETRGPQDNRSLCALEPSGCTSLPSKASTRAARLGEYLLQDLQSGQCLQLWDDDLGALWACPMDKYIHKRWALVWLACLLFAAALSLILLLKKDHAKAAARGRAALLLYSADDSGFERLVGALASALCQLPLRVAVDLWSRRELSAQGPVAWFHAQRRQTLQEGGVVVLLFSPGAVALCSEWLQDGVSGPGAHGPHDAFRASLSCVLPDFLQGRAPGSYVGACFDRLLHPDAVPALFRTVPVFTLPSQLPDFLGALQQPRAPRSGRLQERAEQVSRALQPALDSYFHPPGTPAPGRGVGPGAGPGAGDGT
From the text: as §1

human IL-17A = target: T3, human IL-17A (human, UniProt Q16552 24-155); test: cell-based competition binding, FACS
T3 construct: also called hIL-17A; hIL17A
T3 sequence: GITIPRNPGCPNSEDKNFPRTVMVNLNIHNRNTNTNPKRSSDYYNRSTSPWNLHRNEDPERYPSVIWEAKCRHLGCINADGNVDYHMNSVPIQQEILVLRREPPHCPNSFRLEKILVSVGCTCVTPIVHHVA
Protocol: (§2) The biotinylation of the ligand allows for FACS detection using a secondary Streptavidin conjugated fluorophore. A reduction in cell bound ligand over a titration of the soluble receptor is recorded as a reduction in the mean fluorescence of the cells. Biotinylated ligands are individually pre-mixed at 1 ug/ml with titrating amounts of soluble receptor in staining media (HBSS+1% BSA+0.1% NaAzide+10 mM HEPES) in 100 ul volumes and incubated at RT for 15 minutes. A BHK cell line stably transfected with full length IL17RCx4 is prepared for ligand staining by resuspension with Versene (Invitrogen cat. 15040-066), equilibrating to 2×10e5 cells/100 ul, pelleting, and resuspension in the ligand/soluble receptor pre-mix. Stained cells are incubated at 4° for 30 minutes, washed 1× in staining media, and stained with Streptavidin-PE (BD Pharmingen cat. 554061) at a 1:100 ratio. Cells are incubated at 4° in the dark for 30 minutes, washed 2× in staining media, and re-suspended in a 1:1 ratio of staining media and Cytofix (BD Bioscience 554655). The BD LSRII Flow Cytometer or similar instrument is used for data collection and analysis. FIG. 5 depicts a standard graph. The graph was generated using the Prizm software program. The Y values represent the MFI normalized to maximum and minimum (100% and 0%) based on ligand only and no ligand/no soluble receptor control wells, and thus the percent binding of the ligand to the cells. The software calculates the IC50 for each curve.

human IL-17F = target: T4, human IL-17F (human, UniProt Q96PD4 31-163); test: cell-based competition binding, FACS
T4 construct: also called hIL-17F; hIL17F
T4 sequence: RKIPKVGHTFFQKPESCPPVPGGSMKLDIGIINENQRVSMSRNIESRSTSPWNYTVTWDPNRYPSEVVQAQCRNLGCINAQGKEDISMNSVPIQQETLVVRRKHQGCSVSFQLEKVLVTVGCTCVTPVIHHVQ
Protocol: as §2

[3] = target: T5, human IL-17 receptor (IL-17RA) on transfected cells (human, UniProt Q96F46 33-320); test: FACS, biotinylated cytokine on stably transfected BHK cells
T5 construct: it may not be the full-length receptor; also called hIL-17RA
T5 sequence: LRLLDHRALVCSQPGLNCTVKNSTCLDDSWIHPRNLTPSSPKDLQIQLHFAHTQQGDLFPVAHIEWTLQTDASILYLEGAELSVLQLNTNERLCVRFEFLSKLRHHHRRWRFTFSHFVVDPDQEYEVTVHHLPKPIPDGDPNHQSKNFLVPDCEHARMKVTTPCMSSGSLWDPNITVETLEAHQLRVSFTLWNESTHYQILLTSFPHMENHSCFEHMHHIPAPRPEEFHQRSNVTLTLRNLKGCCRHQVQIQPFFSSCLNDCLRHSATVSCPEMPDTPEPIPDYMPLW

[4] = target: T1, human IL-17RC, x1 splice variant, on …; test: competition, cold competitor vs 125I-IL-17A on BHK hIL-17RC cells
Protocol: Cold competitors were added in 100 fold molar excess. […] Wells were incubated on ice for 1-hour followed by two washes with PBS (Invitrogen 20012-027) and one wash with a high salt solution (1.5M NaCL, 50 mM HEPES pH 7.4). Wells were extracted with 500 ul of 0.8M NaOH for 30 min. at room temperature and counts per minute were measured in a gamma counter (Packard Cobra II A5005).

B1: murine IL-17F (ligand)
chain: RKNPKAGVPALQKAGNCPPLEDNTVRVDIRIFNQNQGISVPREFQNRSSSPWDYNITRDPHRFPSEIAEAQCRHSGCINAQGQEDSTMNSVAIQQEILVLRREPQGCSNSFRLEKMLLKVGCTCVKPIVHQAA
notes: also called mIL-17F; mIL17F
binding result [1]: no binding
binding result [2]: binds

B2: Variant 1390 (Fc fusion)
chain: LERLVGPQDATHCSPGLSCRLWDSDILCLPGDIVPAPGPVLAPTHLQTELVLRCQKETDCDLCLRVAVHLAVHGHWEEPEDEEKFGGAADSGVEEPRNASLQAQVVLSFQAYPTARCVLLEVQVPAALVQFGQSVGSVVYDCFEAALGSEVRIWSYTQPRYEKELNHTQQLPALPWLNVSADGDNVHLVLNVSEEQHFGLSLYWNQVQGPPKPRWHKNLTGPQIITLNHTDLVPCLCIQVWPLEPDSVRTNICPFREDPRAHQNLWQAARLRLLTLQSWLLDAPCSLPAEAALCWRAPGGDPCQPLVPPLSWENVTVDKVLEFPLLKGHPNLCVQVNSSEKLQLQECLWADSLGPLKDDVLLLETRGPQDNRSLCALEPSGCTSLPSKASTRAARLGEYLLQDLQSGQCLQLWDDDLGALWACPMDKYIHKEPKSSDKTHTCPPCPAPEAEGAPSVFLFPPKPKDTLMISRTPEVTCVVVDVSHEDPEVKFNWYVDGVEVHNAKTKPREEQYNSTYRVVSVLTVLHQDWLNGKEYKCKVSNKALPSSIEKTISKAKGQPREPQVYTLPPSRDELTKNQVSLTCLVKGFYPSDIAVEWESNGQPENNYKTTPPVLDSDGSFFLYSKLTVDKSRWQQGNVFSCSVMHEALHNHYTQKSLSLSPGK
notes: The entry may include the signal peptide; also called IL17RC 1390
IC50 (human IL-17A): 12 µg/mL
IC50 (human IL-17F): 9 µg/mL

B3: Variant 1459 (Fc fusion)
chain: B2 chain with L1A
notes: The entry may include the signal peptide; also called IL17RC 1459
IC50 (human IL-17A): 126 µg/mL
IC50 (human IL-17F): 103 µg/mL

B6: human IL-17C (ligand, UniProt Q9P0M4 19-197, looked up)
chain: HHDPSLRGHPHSHGTPHCYSAEELPLGQAPPHLLARGAKWGQALPVALVSSLEAASHRGRHERPSATTQCPVLRPEEVLEADTHQRSISPWRYRVDTDEDRYPQKLAFAECLCRGCIDARTGRETAALNSVRLLQSLLVLRRRPCSRDGSGLPTPGAFAFHTEFIHVPVGCTCVLPRSV
notes: also called hIL-17C
binding result [4]: no binding (tested: 100 fold molar excess)

Second part, led by results:

binding result [3]: no binding
B4: human IL-17E (ligand, UniProt Q9H293 33-177, looked up)
chain: YSHWPSCCPSKGQDTSEELLRWSTVPVPPLEPARPNRHPESCRASEDGPLNSRAISPWRYELDRDLNRLPQDLYHARCLCPHCVSLQTGSHMDPRGNSELLYHNQTVFYRRPCHGEKGTHKGYCLERRLYRVSLACVCVRPRVMG
notes: also called hIL-17E
binding result [4]: no binding (tested: 100 fold molar excess)

binding result [3]: no binding
B5: human IL-17D (ligand, UniProt Q8TAD2 18-202, looked up)
chain: APRAGRRPARPRGCADRPEELLEQLYGRLAAGVLSAFHHTLQLGPREQARNASCPAGGRPADRRFRPPTNLRSVSPWAYRISYDPARYPRYLPEAYCLCRGCLTGLFGEEDVRFRSAPVYMPTVVLRRTPACAGGRSVYTEAYVTIPVGCTCVPEPEKDADSINSSIDKQGAKLLLGPNDAPAGP
notes: also called hIL-17D
binding result [4]: no binding (tested: 100 fold molar excess)
